Assay [1] deals with T1, Human CD38 (human, UniProt P28907 1-300).
T1 sequence: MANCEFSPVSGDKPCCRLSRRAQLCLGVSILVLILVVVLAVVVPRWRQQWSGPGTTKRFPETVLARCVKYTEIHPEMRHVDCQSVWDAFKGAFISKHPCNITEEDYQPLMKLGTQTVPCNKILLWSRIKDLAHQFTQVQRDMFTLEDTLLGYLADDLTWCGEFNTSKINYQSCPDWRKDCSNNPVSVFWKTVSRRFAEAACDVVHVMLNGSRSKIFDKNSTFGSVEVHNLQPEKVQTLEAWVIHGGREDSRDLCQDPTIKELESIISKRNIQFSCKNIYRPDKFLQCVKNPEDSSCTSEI
Put plainly: flow cytometry on red blood cells of Donor 2; negative control.

Assay [2] deals with T1, Human CD38. Put plainly: flow cytometry on red blood cells of Donor 3; negative control. (In flow cytometry, cells or beads pass a laser one at a time.)
Assay [3] deals with T1, Human CD38. As to the kind of experiment: flow cytometry on red blood cells of Donor 1; negative control.
The target in assay [4] is T1, Human CD38. Put plainly: flow cytometry on Ramos cells expressing CD38; negative control, ambiguous regression curve.
In assay [5] the target is T1, Human CD38. Put plainly: flow cytometry on Raji cells expressing CD38; text value differs from Table 1 (273). On the procedure: (§1) Cell lines/primary cell type used. […] Daudi, Raji, Ramos and cells were cultured in log-phase in RPMI-1640 Medium (ATCC 30-2001) supplemented with 10% FCS, 2 mM L-glutamine, 100 IU/ml penicillin, 100 μg/ml streptomycin and 1 mM sodium pyruvate (all from ThermoFisher) with viability of >85% as determined by automated cell counter (Countess II FL Automated Cell Counter; ThermoFisher; catalog #AMQAF1000) prior to experiments.
(§2) Cell staining and flow cytometry. All experiments were done in triplicates using a 96-well plate format. 50,000 cells were plated in each well of a 96-well round bottom tissue culture treated plate. […] Following a wash step with FACS cell staining buffer, cells were incubated with secondary antibody (rabbit anti-human Fcγ F(ab′)2 labeled with Alexa Fluor647; Jackson ImmunoResearch Catalog #309-606-008) at 5 μg/ml for 30 minutes on ice in the dark. Cells were washed once more with FACS cell staining buffer and analyzed by flow cytometry using a BD Biosciences FACSCalibur flow cytometer (San Jose, CA). FSC vs SSC gating was used to identify cells of interest. A total of 3,000 live single cells were recorded for each sample and corresponding fluorescent signal intensity histograms were analyzed. The mean fluorescence intensity (MFI) was calculated using FlowJo analysis software (Ashland, Oregon) for each antibody concentration.

Assay [6] deals with T1, Human CD38. As to the kind of experiment: flow cytometry on Raji cells expressing CD38. How it is done: as §1, §2
In assay [7] the target is T1, Human CD38. Put plainly: flow cytometry on Ramos cells expressing CD38. How it is done: as §1, §2
In assay [8] the target is T1, Human CD38. As to the kind of experiment: flow cytometry on Daudi cells expressing CD38. On the procedure:
as §1, §2

Experimental findings from US20250189544A1 (CASI PHARMACEUTICALS, published 2025) are described below.

On to Human IgG1 isotype control antibody, for which the Max MFI stood at 2110 MFI with Human CD38 [1], 1960 MFI in the assay with Human CD38 [2] and 2560 MFI with Human CD38 [3]. The concentration for a half-maximal effect (EC50) – broadly, the concentration giving half of the maximal effect – with Human CD38 [4] is 0.001 µg/mL.

B1: CID103 (aCD38-b-348) (antibody, V domains shown)
VH: QLQLQESGPGLVKPSETLSLTCTVSGGSISSSDYYWGWIRQPPGKGLEWIGSIYYSGSTYYNPSLKSRVTISVDTSKNQFSLKLSSVTAADTAVYYCARGQYSSGWYAYPFDMWGQGTMVTVSS
VL: EIVLTQSPGTLSLSPGERATLSCRASQSVRSSYLAWYQQKPGQAPRLLIYGASSRATGIPDRFSGSGSGTDFTLTISRLEPEDFAVYYCQQDGNVYTFGGGTKVEIK
Take B1: the EC50 with Human CD38 [5] amounted to 0.373 µg/mL; in the assay with Human CD38 [6], 0.273 µg/mL; in the assay with Human CD38 [7], 0.412 µg/mL; with Human CD38 [8] it was 0.382 µg/mL.
